Tested on: peptide library, one residue held at a place counted from the S/T acceptor
Experiment: relative phosphorylation of the sub-library (ratio to the mean residue at this position); higher = residue favoured
In short: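 Relative sub-library phosphorylation, a ratio to the mean residue at that position, was obtained by phosphorimaging and densitometry of spots on streptavidin membranes. Before capture, purified recombinant kinases were incubated for 90 min under kinase-specific conditions with 50 μM biotinylated degenerate peptide sub-libraries and 50 μM ATP spiked with γ-32P-ATP. Each sub-library fixed one residue at one position around a central Ser/Thr.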

Sequence of AURKC, construct: Full length, human (Q9UQB9 whole entry, looked up): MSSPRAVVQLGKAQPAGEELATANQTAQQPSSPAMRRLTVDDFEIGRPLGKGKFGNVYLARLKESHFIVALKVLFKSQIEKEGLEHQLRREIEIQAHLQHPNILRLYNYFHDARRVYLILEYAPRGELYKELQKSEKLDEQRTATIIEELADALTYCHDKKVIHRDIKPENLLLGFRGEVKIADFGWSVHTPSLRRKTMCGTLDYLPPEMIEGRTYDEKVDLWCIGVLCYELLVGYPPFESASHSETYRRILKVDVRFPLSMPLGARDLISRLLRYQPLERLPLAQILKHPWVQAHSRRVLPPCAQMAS
Sequence of ALPK1, construct: aa1-474 and aa959-end, human (Q96QP1 1-474, looked up): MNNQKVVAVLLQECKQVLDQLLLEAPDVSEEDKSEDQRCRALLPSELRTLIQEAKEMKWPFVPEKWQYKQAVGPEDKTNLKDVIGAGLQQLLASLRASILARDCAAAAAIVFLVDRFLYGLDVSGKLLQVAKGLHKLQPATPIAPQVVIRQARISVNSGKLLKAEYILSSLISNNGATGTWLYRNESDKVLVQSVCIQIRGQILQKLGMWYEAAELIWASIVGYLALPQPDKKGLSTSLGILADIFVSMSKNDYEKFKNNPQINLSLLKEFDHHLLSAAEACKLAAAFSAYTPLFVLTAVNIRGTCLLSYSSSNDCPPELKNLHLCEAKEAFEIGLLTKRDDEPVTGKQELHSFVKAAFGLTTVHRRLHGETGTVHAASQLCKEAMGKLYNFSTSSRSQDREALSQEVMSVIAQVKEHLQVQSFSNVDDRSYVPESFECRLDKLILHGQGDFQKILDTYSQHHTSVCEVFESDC
Sequence of BRSK1, construct: Full length, human (Q8TDC3 whole entry, looked up): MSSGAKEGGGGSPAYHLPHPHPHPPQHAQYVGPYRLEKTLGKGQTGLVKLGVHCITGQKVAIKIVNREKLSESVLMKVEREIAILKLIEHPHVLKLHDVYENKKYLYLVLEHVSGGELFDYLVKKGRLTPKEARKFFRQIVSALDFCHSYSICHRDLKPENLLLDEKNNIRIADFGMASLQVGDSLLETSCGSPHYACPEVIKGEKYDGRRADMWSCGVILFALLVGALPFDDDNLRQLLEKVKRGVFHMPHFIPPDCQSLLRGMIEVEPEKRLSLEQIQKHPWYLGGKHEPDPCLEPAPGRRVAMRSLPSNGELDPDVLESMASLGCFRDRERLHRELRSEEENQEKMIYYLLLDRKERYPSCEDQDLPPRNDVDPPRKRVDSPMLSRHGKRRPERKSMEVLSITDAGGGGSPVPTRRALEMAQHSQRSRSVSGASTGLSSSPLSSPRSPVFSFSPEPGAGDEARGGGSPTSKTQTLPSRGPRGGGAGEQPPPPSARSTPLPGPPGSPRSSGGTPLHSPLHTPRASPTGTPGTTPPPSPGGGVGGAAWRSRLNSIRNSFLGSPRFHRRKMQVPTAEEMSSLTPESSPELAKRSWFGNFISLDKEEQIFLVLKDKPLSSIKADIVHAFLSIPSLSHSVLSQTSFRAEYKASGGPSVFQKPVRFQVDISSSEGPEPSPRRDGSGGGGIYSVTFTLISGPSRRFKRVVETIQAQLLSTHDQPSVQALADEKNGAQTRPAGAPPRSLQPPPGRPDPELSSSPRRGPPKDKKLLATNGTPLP
Sequence of BMP2K, construct: aa37-345, human (Q9NSY1 37-345, looked up): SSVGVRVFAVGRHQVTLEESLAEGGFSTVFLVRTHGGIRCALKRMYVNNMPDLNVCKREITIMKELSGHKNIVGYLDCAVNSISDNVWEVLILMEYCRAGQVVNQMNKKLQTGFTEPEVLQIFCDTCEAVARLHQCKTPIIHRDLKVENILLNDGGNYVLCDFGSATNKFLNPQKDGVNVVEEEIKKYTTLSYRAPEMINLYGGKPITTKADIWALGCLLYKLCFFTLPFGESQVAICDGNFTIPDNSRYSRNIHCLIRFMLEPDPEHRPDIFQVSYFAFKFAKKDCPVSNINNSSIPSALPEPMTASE

ALPK1, construct: aa1-474 and aa959-end, human (from UniProt Q96QP1)
relative phosphorylation
Settings | at +1 | at +2 | at +3 | at +4 | at -1 | at -2 | at -3 | at -4 | at -5
A fixed | 0.392 | 0.063 | 0.503 | 1.02 | 0.957 | 1.29 | 0.868 | 0.65 | 0.43
D fixed | 0.704 | 0.889 | 1.31 | 1.21 | 2.26 | 1.87 | 2.74 | 2 | 1.61
E fixed | 3.35 | 2.03 | 1.22 | 1.27 | 1.9 | 0.573 | 1.83 | 1.77 | 1.83
F fixed | 0.991 | 1.09 | 1.36 | 1.05 | 0.862 | 0.626 | 0.757 | 1.02 | 0.92
G fixed | 0.404 | 0.704 | 0.365 | 0.933 | 0.798 | 0.731 | 0.687 | 0.798 | 0.812
H fixed | 1.15 | 1.07 | 1 | 1.37 | 0.779 | 0.466 | 1.21 | 1.24 | 0.763
I fixed | 1.27 | 1.14 | 0.752 | 0.378 | 1.16 | 1.02 | 0.608 | 0.848 | 1.02
K fixed | 0.774 | 1.49 | 1.08 | 1.09 | 1.13 | 0.599 | 0.905 | 1.31 | 0.94
L fixed | 0.474 | 1.11 | 1.09 | 0.718 | 0.704 | 1.29 | 0.392 | 0.763 | 0.67
M fixed | 1.63 | 1.38 | 1.49 | 0.671 | 0.979 | 1.13 | 0.9 | 0.651 | 1.14
N fixed | 0.75 | 1.19 | 0.97 | 1.36 | 0.572 | 0.718 | 1.11 | 0.874 | 1.08
P fixed | 0.39 | 1.01 | 0.781 | 1.16 | 0.805 | 1.54 | 0.952 | 1.02 | 0.971
Q fixed | 1.01 | 0.617 | 0.852 | 0.914 | 0.933 | 1.31 | 0.826 | 0.758 | 1.16
R fixed | 1.23 | 0.649 | 0.935 | 0.774 | 0.731 | 0.797 | 1.02 | 1.09 | 1.28
V fixed | 0.557 | 1.08 | 1.06 | 0.914 | 0.569 | 1.09 | 0.694 | 0.547 | 0.996
W fixed | 0.811 | 1.01 | 1.06 | 1.1 | 1.04 | 0.771 | 0.557 | 0.92 | 0.613
Y fixed | 1.11 | 0.478 | 1.17 | 1.06 | 0.826 | 1.18 | 0.944 | 0.741 | 0.762
pThr fixed | 0.485 | 1.34 | 1.32 | 1.94 | 1.71 | 1.9 | 2.27 | 1.42 | 1.5
pTyr fixed | 1.74 | 1.33 | 1.73 | 2.97 | 9.01 | 0.489 | 1.53 | 1.85 | 1.83

AURKC, construct: Full length, human (from UniProt Q9UQB9)
relative phosphorylation
Settings | at +1 | at +2 | at +3 | at +4 | at -1 | at -2 | at -3 | at -4 | at -5
A fixed | 1.01 | 1.38 | 1.08 | 0.973 | 0.816 | 0.333 | 0.832 | 1.25 | 1.46
D fixed | 0.814 | 0.611 | 0.589 | 0.957 | 0.459 | 0.179 | 0.421 | 0.58 | 0.651
E fixed | 0.755 | 0.417 | 0.466 | 0.681 | 0.394 | 0.167 | 0.36 | 0.562 | 0.554
F fixed | 1.06 | 0.746 | 0.893 | 0.763 | 0.505 | 0.206 | 0.451 | 0.634 | 0.678
G fixed | 1.37 | 2.03 | 1.6 | 1.25 | 0.672 | 0.399 | 1.06 | 1.33 | 1.63
H fixed | 1.06 | 1.66 | 1.43 | 1.1 | 0.974 | 0.399 | 1.1 | 0.955 | 1.06
I fixed | 0.852 | 0.592 | 0.605 | 0.684 | 0.406 | 0.25 | 0.402 | 0.623 | 0.63
K fixed | 0.89 | 0.853 | 1.13 | 1.23 | 2.57 | 2.63 | 2.51 | 2.06 | 2.15
L fixed | 1.15 | 0.694 | 0.863 | 0.792 | 0.811 | 0.251 | 0.392 | 0.601 | 0.632
M fixed | 1.57 | 0.705 | 0.719 | 0.803 | 0.727 | 0.248 | 0.52 | 0.741 | 0.664
N fixed | 1.29 | 1.23 | 1.25 | 1.2 | 0.73 | 0.304 | 0.919 | 0.856 | 1.05
P fixed | 0.329 | 1.5 | 1.78 | 1.68 | 1.09 | 0.372 | 1.23 | 1.72 | 1.25
Q fixed | 1.16 | 0.975 | 1.03 | 1.35 | 1.09 | 0.529 | 0.803 | 0.96 | 0.767
R fixed | 1 | 0.962 | 1.08 | 1.13 | 3.72 | 10 | 4.34 | 2.18 | 1.47
V fixed | 0.669 | 0.686 | 0.625 | 0.901 | 0.495 | 0.213 | 0.432 | 0.59 | 0.804
W fixed | 1.08 | 1.03 | 0.961 | 0.859 | 0.526 | 0.233 | 0.674 | 0.69 | 0.852
Y fixed | 0.931 | 0.928 | 0.906 | 0.647 | 1.01 | 0.25 | 0.55 | 0.673 | 0.719
pThr fixed | 1.1 | 0.657 | 0.676 | 1.06 | 0.334 | 0.342 | 0.612 | 0.86 | 0.713
pTyr fixed | 0.648 | 0.502 | 0.631 | 0.801 | 0.398 | 0.209 | 0.52 | 0.629 | 0.535

BMP2K, construct: aa37-345, human (from UniProt Q9NSY1)
relative phosphorylation
Settings | at +1 | at +2 | at +3 | at +4 | at -1 | at -2 | at -3 | at -4 | at -5
A fixed | 0.537 | 1.05 | 0.882 | 0.9 | 0.668 | 0.84 | 1.54 | 1.11 | 0.639
D fixed | 0.361 | 0.974 | 0.763 | 0.733 | 0.467 | 1.22 | 0.575 | 0.621 | 0.453
E fixed | 0.338 | 0.938 | 0.68 | 0.806 | 0.428 | 0.942 | 0.684 | 0.871 | 0.45
F fixed | 0.379 | 0.866 | 0.81 | 0.94 | 1.26 | 0.754 | 0.916 | 0.963 | 0.863
G fixed | 10.2 | 0.959 | 1.4 | 0.987 | 0.76 | 0.579 | 0.812 | 1.04 | 0.565
H fixed | 0.392 | 1.08 | 1.21 | 0.989 | 1.35 | 1 | 0.815 | 0.95 | 0.739
I fixed | 0.351 | 0.716 | 0.716 | 0.769 | 0.852 | 0.713 | 1.26 | 1 | 1.92
K fixed | 0.435 | 0.966 | 1.2 | 1.39 | 1.76 | 0.993 | 0.926 | 1.31 | 0.594
L fixed | 0.349 | 0.699 | 0.841 | 0.801 | 1.17 | 0.96 | 0.901 | 1.15 | 1.39
M fixed | 0.368 | 0.842 | 0.765 | 0.847 | 1.18 | 1.91 | 1.46 | 1.12 | 1.24
N fixed | 0.46 | 1.62 | 1.28 | 1.06 | 0.717 | 1.17 | 0.843 | 0.845 | 0.61
P fixed | 0.674 | 0.802 | 1.01 | 0.988 | 0.846 | 0.485 | 1.34 | 0.868 | 1.13
Q fixed | 0.384 | 1.22 | 1.04 | 1.14 | 0.818 | 2.26 | 1.02 | 1.08 | 1.02
R fixed | 0.605 | 1.37 | 1.51 | 1.54 | 1.36 | 1 | 1.03 | 1.29 | 1.55
V fixed | 0.358 | 0.87 | 0.929 | 0.753 | 0.806 | 0.64 | 1.17 | 0.987 | 1.32
W fixed | 0.431 | 1.06 | 0.963 | 1.26 | 0.984 | 0.676 | 0.832 | 0.81 | 0.794
Y fixed | 0.414 | 0.964 | 1 | 1.1 | 1.58 | 0.872 | 0.897 | 0.977 | 1.73
pThr fixed | 0.4 | 0.715 | 0.663 | 0.527 | 0.427 | 0.528 | 0.634 | 0.638 | 0.583
pTyr fixed | 0.357 | 0.841 | 0.698 | 0.572 | 0.527 | 0.928 | 0.647 | 0.72 | 1.19

BRSK1, construct: Full length, human (from UniProt Q8TDC3)
relative phosphorylation
Settings | at +1 | at +2 | at +3 | at +4 | at -1 | at -2 | at -3 | at -4 | at -5
A fixed | 0.673 | 0.575 | 0.697 | 0.51 | 1.03 | 2.4 | 0.781 | 1.28 | 1.05
D fixed | 0.631 | 0.801 | 2.83 | 0.644 | 0.813 | 0.773 | 0.334 | 0.552 | 0.451
E fixed | 0.649 | 0.672 | 0.947 | 0.556 | 0.748 | 0.6 | 0.374 | 0.678 | 0.494
F fixed | 1.67 | 1.41 | 1.4 | 1.09 | 0.72 | 1.04 | 0.522 | 0.648 | 1.12
G fixed | 0.458 | 0.349 | 0.67 | 0.572 | 1.24 | 1.12 | 0.616 | 1.29 | 0.961
H fixed | 0.966 | 1.64 | 1.02 | 0.623 | 1.08 | 1 | 1.1 | 1.19 | 0.765
I fixed | 0.636 | 0.435 | 0.353 | 3.13 | 0.494 | 0.534 | 0.235 | 0.422 | 0.943
K fixed | 0.703 | 0.256 | 0.669 | 0.597 | 1.24 | 1.25 | 2.41 | 2.03 | 1.25
L fixed | 1.12 | 0.672 | 0.529 | 2.95 | 0.951 | 0.476 | 0.32 | 0.56 | 1.09
M fixed | 3.06 | 0.841 | 0.614 | 1.67 | 1.17 | 0.627 | 0.546 | 0.829 | 1.55
N fixed | 1.08 | 1.1 | 2.82 | 0.835 | 0.94 | 0.902 | 0.596 | 0.699 | 0.637
P fixed | 0.306 | 0.467 | 0.32 | 0.628 | 1.53 | 0.735 | 0.673 | 1.48 | 0.939
Q fixed | 1.18 | 1.13 | 1.15 | 0.714 | 0.996 | 0.734 | 0.755 | 0.985 | 0.829
R fixed | 0.985 | 0.357 | 0.729 | 0.575 | 1.34 | 1.7 | 6.17 | 2.19 | 2.01
V fixed | 0.73 | 0.381 | 0.405 | 0.861 | 0.75 | 1.01 | 0.311 | 0.678 | 0.857
W fixed | 0.787 | 2.02 | 0.804 | 0.59 | 0.696 | 1.12 | 0.667 | 0.774 | 0.911
Y fixed | 1.37 | 3.9 | 1.04 | 0.465 | 1.26 | 0.984 | 0.586 | 0.726 | 1.14
pThr fixed | 1.81 | 0.59 | 0.438 | 0.686 | 0.407 | 0.465 | 0.392 | 0.723 | 0.544
pTyr fixed | 0.633 | 0.948 | 0.928 | 0.475 | 1.75 | 0.606 | 0.657 | 0.678 | 0.776

— the supplement of paper PMC9876800
